Measured values: patent publication US9657092B2, “S100A4 antibodies and therapeutic uses thereof” (LYKERA BIOMED SA, priority 2010, dated 2017)
“And” between values parts separate entries of the source, which are not always exact repeats. Equal values may be shown once.

What was measured:
Human S100P = target: T1, Human S100P (Homo sapiens, UniProt P25815); test: ELISA specificity (reaction pattern of mAb); assay type: binding; design: key: ++++ positive reaction; − no reaction
T1 construct: made in house
T1 sequence (P25815 1-95): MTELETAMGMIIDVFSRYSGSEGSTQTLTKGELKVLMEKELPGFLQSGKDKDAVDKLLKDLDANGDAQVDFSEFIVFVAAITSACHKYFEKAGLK

[1] = test system: IL-8 release induced by S100A4 in THP-1 monocytes; test: IL-8 release in THP-1 monocytes (sandwich ELISA); assay type: cell-based, human
Procedure: Cells of the human monocytic leukemia cell line THP-1 (ATCC) were grown in RPMI 1640 culture medium supplemented with 10% FCS and 1% penicillin/streptomycin, at 37° C. in 5% CO2 in a humidified incubator. Cells were plated at 5.0×10^5 cells/well. […] Anti-mouse IgG (Fc specific) was always added in all the cases for preventing the Fc receptor response. Cell culture supernatants were collected after 24 h and stored at −20° C. The levels of IL-8 were analyzed by sandwich ELISA.

[2] = test system: MiaPACA-2 tumors microvasculature; test: Tumor microvasculature quantification by CD31 immunostaining; assay type: in vivo, nude mice
Procedure: Tumors from MiaPACA-2 xenograft tumor model were OCT (Tissue-Tek®, Sakura) embedded and frozen. One cryosection (5 μm) corresponding to the central part of each tumor was analyzed. Sections were fixed in acetone/chloroform (1:1) at −20° C. for 5 min, were dried over night at room temperature, washed with PBS and treated for 10 min at 4° C. in a dark chamber with H2O2 (0.03%) in PBS. Then, sections were washed with PBS and blocked for 20 min at 4° C. using PBS-BSA (2%) plus rabbit serum (5%) (Vector) and with Avidin-biotin blocking solution (Dako) for 10 min each one at 4° C. Samples were incubated for 1 hour at room temperature with primary antibody; a monoclonal rat anti-mouse antibody directed against CD31 (dil 1:200, BD PharMingen) diluted in blocking buffer. After incubation sections were incubated with a polyclonal biotinylated anti-rat antibody as secondary antibody (dil 1:500, Vector) for 30 min at room temperature and were incubated with the ABC reagent (Pierce) for 30 min at room temperature. Finally, sections were incubated with NovaRed (Vector) for 20 min at 4° C., stained with hematoxilin Harris (Sigma) for 10 seconds and mounted using DPX non aqueous mounting medium (Sigma).
Angiogenesis quantification was measured using two criteria:
8 and 39 pictures per slice, depending on the size of tumours, were taken and analyzed using the NIH ImageJ imaging software.
Comparisons between groups were made using the two-tailed nonparametric Mann Whitney U test. Differences for which P value was less than 0.05 were considered statistically significant.
The inventors investigated whether the 5C3 would actually affect tumor angiogenesis in vivo. The evaluation of tumor angiogenesis was made based on the CD31 immunostaining and two analytics approximations: MicroVessel Density (M.V.D.) and the fractional area of vessels (A.A.).

Mouse S100A4 = target: T2, Mouse S100A4 (Mus musculus, UniProt P07091); test: ELISA specificity (reaction pattern of mAb); assay type: binding; design: key to Reaction Pattern of mAb in ELISA, Mouse S100A4: ++++ positive reaction; − no reaction
T2 construct: made in house

[3] = Body weight and adverse side effects in xenograft experiments; assay type: in vivo
Human S100A4 = Human S100A4 (Homo sapiens, UniProt P26447); test: Western-blot of cell and tumor extracts; assay type: binding; design: Levels of S100A4 expression in total extracts from tumor cell lines of different origins; endogenous in cells; host or cells: human tumour cell lines (MiaPACA-2, Panc1, BxPC3, Colo 205, MDA-MB-231 and others) and xenograft tumours from HCT116, MiaPACA-2, BxPC3; conditions: denaturalized protein, reduced conditions
Procedure: (§1) Cell and tumors samples were rinsed twice with PBS and immediately lysed with ice cold Cell Lysis Buffer (150 mM NaCl, 1% IGEPAL CA630, 5 mM EDTA, 100 μg/mL PMSF, 1 mM Na3VO4, 1 mM NaF and 50 mM Tris pH 7.4). Lysates were cleared by centrifugation and the protein concentration was quantified with the Bradford reagent (Bio-Rad). Total extracts (50 μg) were resolved in a 12% SDS-polyacrilamide gel (PAGE) electrophoresis under reduced conditions and transferred to BioTrace™ PVDF membranes (PALL corporation). Membranes were blocked for 1 hour in TBS plus 0.1% Tween-20 with 5% skimmed dried milk, incubated overnight with the relevant primary antibody and then with the secondary antibodies for 1 hour in blocking buffer, washing three times for 10 min in TBS plus 0.1% Tween-20 after each incubation. Signals were developed using the ECL™ Western Blotting Detection Reagents (Amersham) and exposed to Hyperfilm™ ECL (Amersham).

murine S100A4 = target: T3, murine S100A4 (Mus musculus, UniProt P07091); test: Western-blot of NIH-3T3 mouse fibroblast extract; assay type: binding
T3 construct: total extracts from tumor cell lines of different origins and the mouse embryonic fibroblast cell line NIH3T3; endogenous in cells; host or cells: NIH-3T3 mouse fibroblasts
Procedure: as §1

Human S100A7 = target: T4, Human S100A7 (Homo sapiens, UniProt P31151); test: ELISA specificity (reaction pattern of mAb); assay type: binding; design: key: ++++ positive reaction; − no reaction
T4 construct: made in house
T4 sequence (P31151 1-101): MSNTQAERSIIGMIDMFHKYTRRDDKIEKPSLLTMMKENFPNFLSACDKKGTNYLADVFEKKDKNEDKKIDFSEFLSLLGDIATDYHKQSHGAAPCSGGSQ

Human S100A2 = target: T5, Human S100A2 (Homo sapiens, UniProt P29034); test: ELISA specificity (reaction pattern of mAb); assay type: binding; design: key: ++++ positive reaction; − no reaction
T5 construct: purchased Abnova

Human S100A6 = target: T6, Human S100A6 (Homo sapiens, UniProt P06703); test: ELISA specificity (reaction pattern of mAb); assay type: binding; design: key: ++++ positive reaction; − no reaction
T6 construct: purchased Abnova

[4] = group G2, MiaPACA-2 tumors, day 30
[5] = individual animal of G2 (5C3 treatment group), MiaPACA-2 tumor, day 30
[6] = 25 mg/kg i.p. three times a week

T2 sequence (P07091 whole entry): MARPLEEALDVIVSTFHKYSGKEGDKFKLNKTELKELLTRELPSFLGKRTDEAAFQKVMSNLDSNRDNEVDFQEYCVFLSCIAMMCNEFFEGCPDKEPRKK
T3 sequence (P07091 whole entry): as above
Chain of Human S100A4 (P26447 whole entry, one chain of several): as the sequence (P07091 whole entry) above, with R3C, E7K, I12M, T32S, V58L, C93F, E97Q counted along it
T5 sequence (P29034 whole entry): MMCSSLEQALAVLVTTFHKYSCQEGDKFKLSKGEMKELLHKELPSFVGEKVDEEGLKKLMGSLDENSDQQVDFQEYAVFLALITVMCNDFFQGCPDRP

B1: 5C3: mouse monoclonal anti-S100A4 antibody, IgG1, from hybridoma ECACC 10022401; VL SEQ ID NO: 1, VH SEQ ID NO: 2 (antibody, V domains shown)
VH: EAQLQQSGAELVKPGASVKLSCTASGFNIQETYMHWVKQRPEQGLEWIGRIDPANGNTKDDPKFQGKASITVDTSSNTAYLQLSSLTSEDTAVYYCASSYAMDYWGQGTSVTVSS
VL: DVLMTQTPLSLPVSLGDQASISCRSSQSIVHSNGNTYLEWYLQKTGQSPELLIYKVSNRLSGVPDRFSGSGSGTDFTLKISRVEAEDLGVYYCFQGSHVPFTFGSGTKLEIK
modifications: VH region of the 5C3 monoclonal antibody; VL region of the 5C3 monoclonal antibody
- Reaction Pattern of mAb in ELISA, Human S100P (Human S100P): −
- IL-8 release induced by S100A4 ([1]; S100A4 3 μM, 24 h): can be blocked
- IL-8 levels in absence of S100A4 ([1]; absence of S100A4, data not shown): no effect
- reduction in microvessel density compared with control group (vehicle) ([2]; MiaPACA-2 tumors): approximately 40%
- reduction of the section area occupied by vessels compared with control group (vehicle) ([2]; MiaPACA-2 tumors): ~30%
- AA (%) Mean [2, 4]: 0.69%
- AA (%) Median [2, 4]: 0.59%
- MVD (v.p./mm^2) Mean [2, 4]: 27.42 v.p./mm^2
- MVD (v.p./mm^2) Median [2, 4]: 26.45 v.p./mm^2
- % A.A. (Fractional area of vessels) [2, 5]: 1.14% and 1.26% and 0.53% (2×) and 0.41% and 0.66% and 0.72% and 0.32%
- M.V.D. (MicroVascular Density) [2, 5]: 31.55 v.p./mm^2 and 44.37 v.p./mm^2 and 20.23 v.p./mm^2 and 16.81 v.p./mm^2 and 29.84 v.p./mm^2 and 36.23 v.p./mm^2 and 17.31 v.p./mm^2 and 23.05 v.p./mm^2
- No of vessels [2, 5]: 514 and 460 and 240 and 203 and 440 and 426 and 158 and 174
- Reaction Pattern of mAb in ELISA, Mouse S100A4 (Mouse S100A4): ++++
- reaction with murine S100A4 by ELISA (Mouse S100A4; purified protein): reacted
- adverse side effects (motor incoordination, paralysis, ataxia, convulsions, diarrhoea, cachexia, erythema, hypothermia, mortality) [3, 6]: did not observe adverse side effects
- body weight loss [3, 6]: No body weight loss
- macroscopic analyses of organs [3, 6]: did not evidence abnormalities in organs
- tolerability ([3]; 25 mg/kg, three times a week up to the end of experiment): well-tolerated
- reaction with human S100A4 in Western-blot (Human S100A4): react with human S100A4
- reaction with murine S100A4 in Western-blot (murine S100A4): also with murine S100A4
- Reaction Pattern of mAb in ELISA, Human S100A7 (Human S100A7): −
- Reaction Pattern of mAb in ELISA, Human S100A2 (Human S100A2): −
- Reaction Pattern of mAb in ELISA, Human S100A6 (Human S100A6): −
